No end group written: not given here. *: point of attachment. For = O=C*
Target: T1, C-terminally His-tagged N-formyl peptide receptor (UniProt P21462 1-350)
T1 construct: Expressed in transfected U937 cells; also called C-His FPR; His6 FPR
T1 sequence: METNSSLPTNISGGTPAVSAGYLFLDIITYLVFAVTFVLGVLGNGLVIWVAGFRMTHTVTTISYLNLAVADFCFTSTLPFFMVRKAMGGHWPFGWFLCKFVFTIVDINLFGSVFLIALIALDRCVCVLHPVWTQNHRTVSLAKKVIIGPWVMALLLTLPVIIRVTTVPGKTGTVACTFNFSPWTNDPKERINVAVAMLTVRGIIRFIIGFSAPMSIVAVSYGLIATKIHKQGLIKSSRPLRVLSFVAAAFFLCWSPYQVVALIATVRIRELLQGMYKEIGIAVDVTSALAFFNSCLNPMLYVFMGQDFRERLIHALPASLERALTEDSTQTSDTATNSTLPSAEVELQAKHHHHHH
Assay: flow cytometry; fMLFK-FITC on C-His FPR silica particles, optimal receptor input

B1: formyl-met-leu-phe-lys-FITC (peptide)
peptide: For-MLFK
modifications: also: FITC label, attachment site not given here
notes: Bought from Peninsula Laboratories; also called fMLFK-FITC; fluorescent formyl peptide
fluorescent ligand signal to background ratio: ≥ 30 ratio (x:1)
